Measurements: PMC9485244

Columns and labels:
[1] = biological target: TatB^mNeon (E. coli TatB C-terminally tagged with mNeonGreen) (E. coli) (UniProt P69425); assay: single-molecule photobleaching step counting; individual CellMask-positive IMVs adsorbed on plasma-cleaned coverslips, narrow-field epifluorescence (488 nm), 50 mM Tris-HCl, 150 mM NaCl, pH 7.5; step histograms (manual and PDD) fit to oligomer models (monomer to octamer) with Poisson distribution of complexes in IMVs and binomial fluorescence detection efficiency; copies per Tat receptor complex
[2] = biological target: TatC^mNeon (E. coli TatC C-terminally tagged with mNeonGreen) (E. coli) (UniProt P69423); assay: as above

Row | Substance | stoichiometry N (copies per receptor complex) [1] | stoichiometry N (copies per receptor complex) [2]
1 | TatB^mNeon (E. coli TatB C-terminally tagged with mNeonGreen) (from UniProt P69425 1-171) (natural protein) | 4 | –
2 | TatC^mNeon (E. coli TatC C-terminally tagged with mNeonGreen) (from UniProt P69423 1-258) (natural protein) | – | 4
